Results as given in article PMC3760018 (European journal of immunology, 2013).

B1: recombinant C4BP α-chain WT (natural protein, human, UniProt P04003 49-597, looked up)
chain: NCGPPPTLSFAAPMDITLTETRFKTGTTLKYTCLPGYVRSHSTQTLTCNSDGEWVYNTFCIYKRCRHPGELRNGQVEIKTDLSFGSQIEFSCSEGFFLIGSTTSRCEVQDRGVGWSHPLPQCEIVKCKPPPDIRNGRHSGEENFYAYGFSVTYSCDPRFSLLGHASISCTVENETIGVWRPSPPTCEKITCRKPDVSHGEMVSGFGPIYNYKDTIVFKCQKGFVLRGSSVIHCDADSKWNPSPPACEPNSCINLPDIPHASWETYPRPTKEDVYVVGTVLRYRCHPGYKPTTDEPTTVICQKNLRWTPYQGCEALCCPEPKLNNGEITQHRKSRPANHCVYFYGDEISFSCHETSRFSAICQGDGTWSPRTPSCGDICNFPPKIAHGHYKQSSSYSFFKEEIIYECDKGYILVGQAKLSCSYSHWSAPAPQCKALCRKPELVNGRLSVDKDQYVEPENVTIQCDSGYGVVGPQSITCSGNRTWYPEVPKCEWETPEGCEQVLTGKRLMQCLPNPEDVKMALEVYKLSLEIEQLELQRDSARQSTLDKEL
B2: recombinant C4BP α-chain I300T (natural protein, human, UniProt P04003 49-597, looked up)
chain: NCGPPPTLSFAAPMDITLTETRFKTGTTLKYTCLPGYVRSHSTQTLTCNSDGEWVYNTFCIYKRCRHPGELRNGQVEIKTDLSFGSQIEFSCSEGFFLIGSTTSRCEVQDRGVGWSHPLPQCEIVKCKPPPDIRNGRHSGEENFYAYGFSVTYSCDPRFSLLGHASISCTVENETIGVWRPSPPTCEKITCRKPDVSHGEMVSGFGPIYNYKDTIVFKCQKGFVLRGSSVIHCDADSKWNPSPPACEPNSCTNLPDIPHASWETYPRPTKEDVYVVGTVLRYRCHPGYKPTTDEPTTVICQKNLRWTPYQGCEALCCPEPKLNNGEITQHRKSRPANHCVYFYGDEISFSCHETSRFSAICQGDGTWSPRTPSCGDICNFPPKIAHGHYKQSSSYSFFKEEIIYECDKGYILVGQAKLSCSYSHWSAPAPQCKALCRKPELVNGRLSVDKDQYVEPENVTIQCDSGYGVVGPQSITCSGNRTWYPEVPKCEWETPEGCEQVLTGKRLMQCLPNPEDVKMALEVYKLSLEIEQLELQRDSARQSTLDKEL
B3: recombinant C4BP α-chain D284E (natural protein, human, UniProt P04003 49-597, looked up)
chain: NCGPPPTLSFAAPMDITLTETRFKTGTTLKYTCLPGYVRSHSTQTLTCNSDGEWVYNTFCIYKRCRHPGELRNGQVEIKTDLSFGSQIEFSCSEGFFLIGSTTSRCEVQDRGVGWSHPLPQCEIVKCKPPPDIRNGRHSGEENFYAYGFSVTYSCDPRFSLLGHASISCTVENETIGVWRPSPPTCEKITCRKPDVSHGEMVSGFGPIYNYKDTIVFKCQKGFVLRGSSVIHCDAESKWNPSPPACEPNSCINLPDIPHASWETYPRPTKEDVYVVGTVLRYRCHPGYKPTTDEPTTVICQKNLRWTPYQGCEALCCPEPKLNNGEITQHRKSRPANHCVYFYGDEISFSCHETSRFSAICQGDGTWSPRTPSCGDICNFPPKIAHGHYKQSSSYSFFKEEIIYECDKGYILVGQAKLSCSYSHWSAPAPQCKALCRKPELVNGRLSVDKDQYVEPENVTIQCDSGYGVVGPQSITCSGNRTWYPEVPKCEWETPEGCEQVLTGKRLMQCLPNPEDVKMALEVYKLSLEIEQLELQRDSARQSTLDKEL
B4: recombinant C4BP α-chain G423E (natural protein, human, UniProt P04003 49-597, looked up)
chain: NCGPPPTLSFAAPMDITLTETRFKTGTTLKYTCLPGYVRSHSTQTLTCNSDGEWVYNTFCIYKRCRHPGELRNGQVEIKTDLSFGSQIEFSCSEGFFLIGSTTSRCEVQDRGVGWSHPLPQCEIVKCKPPPDIRNGRHSGEENFYAYGFSVTYSCDPRFSLLGHASISCTVENETIGVWRPSPPTCEKITCRKPDVSHGEMVSGFGPIYNYKDTIVFKCQKGFVLRGSSVIHCDADSKWNPSPPACEPNSCINLPDIPHASWETYPRPTKEDVYVVGTVLRYRCHPGYKPTTDEPTTVICQKNLRWTPYQGCEALCCPEPKLNNGEITQHRKSRPANHCVYFYGDEISFSCHETSRFSAICQGDGTWSPRTPSCEDICNFPPKIAHGHYKQSSSYSFFKEEIIYECDKGYILVGQAKLSCSYSHWSAPAPQCKALCRKPELVNGRLSVDKDQYVEPENVTIQCDSGYGVVGPQSITCSGNRTWYPEVPKCEWETPEGCEQVLTGKRLMQCLPNPEDVKMALEVYKLSLEIEQLELQRDSARQSTLDKEL
B5: recombinant C4BP α-chain I224T (natural protein, human, UniProt P04003 49-597, looked up)
chain: NCGPPPTLSFAAPMDITLTETRFKTGTTLKYTCLPGYVRSHSTQTLTCNSDGEWVYNTFCIYKRCRHPGELRNGQVEIKTDLSFGSQIEFSCSEGFFLIGSTTSRCEVQDRGVGWSHPLPQCEIVKCKPPPDIRNGRHSGEENFYAYGFSVTYSCDPRFSLLGHASISCTVENETTGVWRPSPPTCEKITCRKPDVSHGEMVSGFGPIYNYKDTIVFKCQKGFVLRGSSVIHCDADSKWNPSPPACEPNSCINLPDIPHASWETYPRPTKEDVYVVGTVLRYRCHPGYKPTTDEPTTVICQKNLRWTPYQGCEALCCPEPKLNNGEITQHRKSRPANHCVYFYGDEISFSCHETSRFSAICQGDGTWSPRTPSCGDICNFPPKIAHGHYKQSSSYSFFKEEIIYECDKGYILVGQAKLSCSYSHWSAPAPQCKALCRKPELVNGRLSVDKDQYVEPENVTIQCDSGYGVVGPQSITCSGNRTWYPEVPKCEWETPEGCEQVLTGKRLMQCLPNPEDVKMALEVYKLSLEIEQLELQRDSARQSTLDKEL
B6: recombinant C4BP α-chain I126T (natural protein, human, UniProt P04003 49-597, looked up)
chain: NCGPPPTLSFAAPMDITLTETRFKTGTTLKYTCLPGYVRSHSTQTLTCNSDGEWVYNTFCIYKRCRHPGELRNGQVETKTDLSFGSQIEFSCSEGFFLIGSTTSRCEVQDRGVGWSHPLPQCEIVKCKPPPDIRNGRHSGEENFYAYGFSVTYSCDPRFSLLGHASISCTVENETIGVWRPSPPTCEKITCRKPDVSHGEMVSGFGPIYNYKDTIVFKCQKGFVLRGSSVIHCDADSKWNPSPPACEPNSCINLPDIPHASWETYPRPTKEDVYVVGTVLRYRCHPGYKPTTDEPTTVICQKNLRWTPYQGCEALCCPEPKLNNGEITQHRKSRPANHCVYFYGDEISFSCHETSRFSAICQGDGTWSPRTPSCGDICNFPPKIAHGHYKQSSSYSFFKEEIIYECDKGYILVGQAKLSCSYSHWSAPAPQCKALCRKPELVNGRLSVDKDQYVEPENVTIQCDSGYGVVGPQSITCSGNRTWYPEVPKCEWETPEGCEQVLTGKRLMQCLPNPEDVKMALEVYKLSLEIEQLELQRDSARQSTLDKEL
B7: recombinant C4BP α-chain R120H (natural protein, human, UniProt P04003 49-597, looked up)
chain: NCGPPPTLSFAAPMDITLTETRFKTGTTLKYTCLPGYVRSHSTQTLTCNSDGEWVYNTFCIYKRCRHPGELHNGQVEIKTDLSFGSQIEFSCSEGFFLIGSTTSRCEVQDRGVGWSHPLPQCEIVKCKPPPDIRNGRHSGEENFYAYGFSVTYSCDPRFSLLGHASISCTVENETIGVWRPSPPTCEKITCRKPDVSHGEMVSGFGPIYNYKDTIVFKCQKGFVLRGSSVIHCDADSKWNPSPPACEPNSCINLPDIPHASWETYPRPTKEDVYVVGTVLRYRCHPGYKPTTDEPTTVICQKNLRWTPYQGCEALCCPEPKLNNGEITQHRKSRPANHCVYFYGDEISFSCHETSRFSAICQGDGTWSPRTPSCGDICNFPPKIAHGHYKQSSSYSFFKEEIIYECDKGYILVGQAKLSCSYSHWSAPAPQCKALCRKPELVNGRLSVDKDQYVEPENVTIQCDSGYGVVGPQSITCSGNRTWYPEVPKCEWETPEGCEQVLTGKRLMQCLPNPEDVKMALEVYKLSLEIEQLELQRDSARQSTLDKEL

What follows are molecules tested against recombinant C4BP α-chain P4Q (human) (UniProt P04003) (assay: non-reducing SDS-PAGE).

Stoichiometry N, 6:
recombinant C4BP α-chain P4Q (from UniProt P04003 49-597) (natural protein)

Molecular target: the molecule itself
Test: non-reducing SDS-PAGE

Stoichiometry N, 6:
B1, B2, B3, B4, B5, B6, B7
